Laboratory results published in patent publication US20260167685A1, “NEW MICROPEPTIDE HMBJ AND USE THEREOF” (NANJING ANJI BIOTECHNOLOGY CO., LTD, priority 2023, published 2026).

Columns and labels:
Assay type in all cases: cell-based
[1] = system: human renal proximal tubule cells HK2; assay: inhibitory effect on human renal fibrosis cell model (TGFβ1-stimulated, qPCR); details: 10 nmol recombinant human TGFβ1, different concentrations of synthetic micropeptide, co-incubation 24 h, qPCR (FIG. 12)
Text: (§1) Compared with the related art, this application has the following beneficial effects: • (1) This application provides a lncRNA and a nucleotide sequence thereof. Through analysis of sequencing data for multiple organ fibroses, it is discovered that the lncRNA molecule ENSG00000272654 is expressed at a low level in the organ fibroses. […] The lncRNA molecule can be used for diagnosis or auxiliary diagnosis and treatment or auxiliary treatment of organ fibrosis, or can be used in preparation of a reagent for diagnosis or auxiliary diagnosis and treatment or auxiliary treatment of organ fibrosis. • (2) This application provides a nucleotide sequence of an open reading frame of the lncRNA. The nucleotide sequence can code new micropeptide HMBJ. […] Then, the extracted total RNA is reverse-transcribed by using a reverse transcription reagent, and then mRNA expressions of gene Col1a1, TGFβ1, and CTGF in the three organ fibrosis cell models are detected by real-time fluorescence quantification PCR. […]
Human renal proximal tubule cells HK2 were cultured in a cell incubator at 37° C. under 5% CO2 until a cell density was 80% or more. […] Then, the cells were resuspended in a complete medium and counted by using a cell counter. […]

[2] = system: human hepatic stellate cells LX-2; assay: inhibitory effect on human liver fibrosis cell model (TGFβ1-stimulated, qPCR); details: LX-2 cells, 10 nmol recombinant human TGFβ1, different concentrations of synthetic micropeptide, co-incubation 24 h, qPCR (FIG. 11)
Text: as §1
In this example, inhibitory effect of the micropeptide HMBJ on a human liver fibrosis cell model was detected. […] Then, the cells were resuspended in a complete medium and counted by using a cell counter. […]

[3] = system: human non-small cell lung cancer cells A549; assay: inhibitory effect on human pulmonary fibrosis cell model (TGFβ1-stimulated, qPCR); details: 10 nmol recombinant human TGFβ1, different concentrations of synthetic micropeptide, co-incubation 24 h, qPCR (FIG. 13)
Text: as §1
Human non-small cell lung cancer cells A549 were cultured in a cell incubator at 37° C. under 5% CO2 until a cell density was 80% or more. […] Then, the cells were resuspended in a complete medium and counted by using a cell counter. […]

Measured: inhibitory effect on mRNA expressions of gene Col1a1, TGFβ1, and CTGF

B1: HMBJ: new human endogenous micropeptide of 71 amino acids (SEQ ID NO. 3) coded by lncRNA ENSG00000272654, made by solid-phase synthesis (peptide, listed as Homo sapiens)
chain: MEAKLRVLVPAETGISETHDEHETFSLSLGSHSATQMNGVTFPHVTLLSLLLRAGPLHNLFKCSQLSLAPT
significant inhibitory effect: all assays above
